B1: Hereditary hemochromatosis protein (Homo sapiens), Q30201 (parent)
chain: MGPRARPALLLLMLLQTAVLQGRLLRSHSLHYLFMGASEQDLGLSLFEALGYVDDQLFVFYDHESRRVEPRTPWVSSRISSQMWLQLSQSLKGWDHMFTVDFWTIMENHNHSKESHTLQVILGCEMQEDNSTEGYWKYGYDGQDHLEFCPDTLDWRAAEPRAWPTKLEWERHKIRARQNRAYLERDCPAQLQQLLELGRGVLDQQVPPLVKVTHHVTSSVTTLRCRALNYYPQNITMKWLKDKQPMDAKEFEPKDVLPNGDGTYQGWITLAVPPGEEQRYTCQVEHPGLDQPLIVIWEPSPSGTLVIGVISGIAVFVVILFIGILFIILRKRQGSRGAMGHYVLAERE

Assays:
trfe_human TF, P02787 [1] = variants of: B1; conditions: with trfe_human TF
b2mg_human B2M, P61769 [2] = variants of: B1; conditions: with b2mg_human B2M
tfr1_human TFRC, P02786 = variants of: B1; conditions: with tfr1_human TFRC
trfe_human TF, P02787 [3] = variants of: B1; conditions: with trfe_human TF; remark: listed apart in the source
trfe_human TF, P02787 [4] = variants of: B1; conditions: with trfe_human TF; remark: listed apart in the source
b2mg_human B2M, P61769 [5] = variants of: B1; conditions: with b2mg_human B2M; remark: listed apart in the source
trfe_human TF, P02787 [6] = variants of: B1; conditions: with trfe_human TF; remark: listed apart in the source

b2mg_human B2M, P61769, sequence (P61769 whole entry): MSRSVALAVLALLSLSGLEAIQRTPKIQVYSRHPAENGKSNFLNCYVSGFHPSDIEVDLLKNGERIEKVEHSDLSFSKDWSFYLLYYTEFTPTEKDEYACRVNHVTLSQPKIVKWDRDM
trfe_human TF, P02787, sequence (P02787 whole entry): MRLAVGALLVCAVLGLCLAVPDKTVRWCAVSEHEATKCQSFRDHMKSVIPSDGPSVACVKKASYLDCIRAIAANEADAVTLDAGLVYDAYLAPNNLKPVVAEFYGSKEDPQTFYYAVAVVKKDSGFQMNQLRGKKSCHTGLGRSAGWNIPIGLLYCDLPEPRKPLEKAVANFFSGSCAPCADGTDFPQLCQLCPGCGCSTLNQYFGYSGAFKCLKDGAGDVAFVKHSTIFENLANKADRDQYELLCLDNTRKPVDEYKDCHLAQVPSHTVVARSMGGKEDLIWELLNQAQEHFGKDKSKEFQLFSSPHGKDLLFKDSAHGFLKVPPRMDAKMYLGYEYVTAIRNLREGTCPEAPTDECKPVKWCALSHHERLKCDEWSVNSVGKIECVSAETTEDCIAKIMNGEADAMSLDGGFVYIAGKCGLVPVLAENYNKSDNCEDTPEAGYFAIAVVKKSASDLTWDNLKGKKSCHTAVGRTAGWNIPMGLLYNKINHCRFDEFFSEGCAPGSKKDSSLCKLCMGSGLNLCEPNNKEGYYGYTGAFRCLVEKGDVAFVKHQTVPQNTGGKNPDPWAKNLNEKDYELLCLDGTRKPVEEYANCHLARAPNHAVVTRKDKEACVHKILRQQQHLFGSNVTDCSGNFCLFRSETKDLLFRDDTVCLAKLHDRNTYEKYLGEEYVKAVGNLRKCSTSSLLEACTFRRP
tfr1_human TFRC, P02786, sequence (P02786 whole entry, looked up): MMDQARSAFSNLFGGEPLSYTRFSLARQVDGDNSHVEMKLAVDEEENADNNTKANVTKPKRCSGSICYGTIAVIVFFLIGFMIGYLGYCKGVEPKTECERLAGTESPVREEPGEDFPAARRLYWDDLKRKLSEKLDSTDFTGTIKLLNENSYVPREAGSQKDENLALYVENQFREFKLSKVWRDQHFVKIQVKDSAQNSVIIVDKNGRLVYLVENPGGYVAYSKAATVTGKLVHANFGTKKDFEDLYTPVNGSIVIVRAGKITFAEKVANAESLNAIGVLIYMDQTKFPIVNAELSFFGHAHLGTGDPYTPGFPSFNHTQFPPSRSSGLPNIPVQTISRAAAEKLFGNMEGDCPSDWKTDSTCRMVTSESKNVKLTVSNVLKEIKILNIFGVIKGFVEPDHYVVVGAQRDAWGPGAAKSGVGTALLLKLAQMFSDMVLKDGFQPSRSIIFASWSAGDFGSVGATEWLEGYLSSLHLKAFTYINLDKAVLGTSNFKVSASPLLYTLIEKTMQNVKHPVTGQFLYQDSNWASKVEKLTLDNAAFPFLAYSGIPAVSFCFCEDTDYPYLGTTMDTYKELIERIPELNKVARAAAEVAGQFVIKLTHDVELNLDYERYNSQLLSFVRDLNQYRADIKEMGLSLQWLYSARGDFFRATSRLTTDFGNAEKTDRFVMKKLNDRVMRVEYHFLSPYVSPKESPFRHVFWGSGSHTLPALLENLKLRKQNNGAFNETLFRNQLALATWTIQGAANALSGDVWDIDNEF

| Variant | effect of a mutation on the interaction (trfe_human TF, P02787 [1]) | effect of a mutation on the interaction (b2mg_human B2M, P61769 [2]) | effect of a mutation on the interaction (tfr1_human TFRC, P02786) | effect of a mutation on the interaction (trfe_human TF, P02787 [3]) | effect of a mutation on the interaction (trfe_human TF, P02787 [4]) | effect of a mutation on the interaction (b2mg_human B2M, P61769 [5]) | effect of a mutation on the interaction (trfe_human TF, P02787 [6]) |
| --- | --- | --- | --- | --- | --- | --- | --- |
| MGPRARPALLLLMLLQTAVLQGRLLRSHSLHYLFMGASEQDLGLSLFEALGYVDDQLFVFYDHESRRVEPRTPWVSSRISSQMWLQLSQSLKGWDHMFTVDFWTIMENHNHSKESHTLQVILGCEMQEDNSTEGYWKYGYDGQDHLEFCPDTLDWRAAEPRAWPTKLEWERHKIRARQNRAYLERDCPAQLQQLLELGRGVLDQQVPPLVKVTHHVTSSVTTLRCRALNYYPQNITMKWLKDKQPMDAKEFEPKDVLPNGDGTYQGWITLAVPPGEEQRYTYQVEHPGLDQPLIVIWEPSPSGTLVIGVISGIAVFVVILFIGILFIILRKRQGSRGAMGHYVLAERE [C282Y] | disrupting interaction | disrupting interaction |  |  |  |  |  |
| MGPRARPALLLLMLLQTAVLQGRLLRSHSLHYLFMGASEQDLGLSLFEALGYVDDQLFVFYDHESRRVEPRTPWVSSRISSQMWLQLSQSLKGWDHMFTVDFWTIMENHNHSKESHTLQVILGCEMQEDASTEGYWKYGYDGQDHLEFCPDTLDWRAAEPRAWPTKLEWERHKIRARQNRAYLERDCPAQLQQLLELGRGVLDQQVPPLVKVTHHVTSSVTTLRCRALNYYPQNITMKWLKDKQPMDAKEFEPKDVLPNGDGTYQGWITLAVPPGEEQRYTCQVEHPGLDQPLIVIWEPSPSGTLVIGVISGIAVFVVILFIGILFIILRKRQGSRGAMGHYVLAERE [N130A] |  |  | disrupting interaction | disrupting interaction | decreasing interaction | disrupting interaction |  |
| MGPRARPALLLLMLLQTAVLQGRLLRSHSLHYLFMGASEQDLGLSLFEALGYVDDQLFVFYDHESRRVEPRTPWVSSRISSQMWLQLSQSLKGWDHMFTVDFWTIMENHNHSKESHTLQVILGCEMQEDNSTEGYWKYGYDGQDHLEFCPDTLDWRAAEPRAWPTKLEWERHKIRARQNRAYLERDCPAQLQQLLELGRGVLDQQVPPLVKVTHHVTSSVTTLRCRALNYYPQAITMKWLKDKQPMDAKEFEPKDVLPNGDGTYQGWITLAVPPGEEQRYTCQVEHPGLDQPLIVIWEPSPSGTLVIGVISGIAVFVVILFIGILFIILRKRQGSRGAMGHYVLAERE [N234A] |  |  |  |  |  | disrupting interaction | decreasing interaction |
| MGPRARPALLLLMLLQTAVLQGRLLRSHSLHYLFMGASEQDLGLSLFEALGYVDDQLFVFYDHESRRVEPRTPWVSSRISSQMWLQLSQSLKGWDHMFTVDFWTIMENHAHSKESHTLQVILGCEMQEDNSTEGYWKYGYDGQDHLEFCPDTLDWRAAEPRAWPTKLEWERHKIRARQNRAYLERDCPAQLQQLLELGRGVLDQQVPPLVKVTHHVTSSVTTLRCRALNYYPQNITMKWLKDKQPMDAKEFEPKDVLPNGDGTYQGWITLAVPPGEEQRYTCQVEHPGLDQPLIVIWEPSPSGTLVIGVISGIAVFVVILFIGILFIILRKRQGSRGAMGHYVLAERE [N110A] |  |  | disrupting interaction | disrupting interaction | decreasing interaction | disrupting interaction |  |

From IntAct's records for PubMed 20618438
